Measurements as given in the RNAGym collection of RNA variant scans (doi:10.1073/pnas.2313332121).

B1: TPR t1 (parent)
chain: GACCAAUCUGCCCUCAGAGCUCGAGAACAUCUUCGGAUGCAGAGGAGGCAGGCUUCGGUGGCGCGAUAGCGCCAACGUCCUCAACCUCCAAUGCAUCCCACCACAUGAUGAUGCCUGAAGAGCCUUGGUUUUUUG

Variants of: B1
Assay: polymerase ribozyme fitness, log enrichment relative to wild type (log ratio); higher = more active; in vitro selection for triplet polymerase activity
Method in brief: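 Only genotypes with ≥10 input reads and ≥1 read per output were kept after Illumina sequencing of input and output libraries. These libraries were PCR-built, transcribed mutants of each subunit of a heterodimeric triplet polymerase ribozyme, each put through one triplicate in vitro selection round with frozen incubation at −7 °C, gel excision of extended constructs, streptavidin-bead capture and RT-PCR. Fitness is a logarithmic ratio of genotype enrichment to wild-type enrichment, from inverse-variance-weighted replicate averages, with the logarithm in base 2.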

In order of rising “polymerase ribozyme fitness (log ratio)” value:
1. C4A A41U G58C G117A  -7.2
2. C4U G44U G61A C80G C89G C114U U131G  -7.14
3. C4A C70G G113A U116A  -6.73
4. A5C G47U G48C G71A C102A  -6.35
5. C4U C34A G52C C99A C102U U106C  -6
6. C3U U9G G45A G51U C53G C123A  -5.27
7. C4A A18C C49U C85U C114G  -5.25
8. C4A A29U G48U G71U U109G  -5.09
9. A5G C13U A103U  -4.92
10. A5C G23U G71C U112C U126A U131A  -4.82
11. C4A G60A C102U A118U U132C  -4.76
12. A5G C70G G71U G120A U131A  -4.58
13. C4U C70A G128C  -4.51
14. C4A A18G C89A A100C G113A C124U  -4.48
15. A5C C98U U112A G128C  -4.48
16. C3U G48U G61C G65U G71A  -4.29
17. C4G A37G C49G G113C  -4.25
18. C4A C56A C70A C72U U125G  -4.17
19. C3U U33G C53U U54A C73U U87A C124A  -4.16
20. C3U G39C G117U U133G  -4.12
21. A5G G10U C72G C86U C97U C114A  -3.98
22. A5C A37U G39C C86A C124G  -3.87
23. C3U G47A C62U A105U A118G  -3.83
24. C3U U55C C89U C115U  -3.75
25. C4U G19A C56G U106A C123G  -3.72
26. C4U G48U U92G G113C  -3.72
27. C4U C11G G60A C72G C82U C97U A108G G120A  -3.71
28. C4U G17U G48A U54G G61A G77U U130C  -3.69
29. C3U G10U A26U U55C G69U U112C  -3.58
30. C4U G10C C20A G48U A119G  -3.45
31. C4U A18C C53A C88G  -3.41
32. C4G A41C G77A A95C  -3.4
33. C3U G63C U78C  -3.19
34. C4G U14A C73G G120A  -3.16
35. C4U C49U G52A  -3.12
36. A5G G45C G69A  -2.95
37. A5G C11G C28U U59G A118G G127U G135U  -2.91
38. C3U U59C A111G G120U  -2.84
39. C4G C8G C11A U14G G69C C124U  -2.77
40. C4G A5U  -2.76
41. A5G C12U G113U U125C  -2.74
42. A5G G61C C104A  -2.73
43. C4A C13U G63C U81A  -2.72
44. C3U G117U  -2.69
45. C4G G61U G93A  -2.57
46. C4U C12G G17C G48A U54C C104A C115G  -2.54
47. C4G C56A  -2.34
48. A5G C11G A16G G63U A74C G77U A95C G117U  -2.32
49. A5C C72A U96A G127A  -2.31
50. C3U G47U A50C  -2.21
51. C4A C98U  -2.2
52. C4G C49A  -2.14
53. A5G C114G  -2.13
54. A5C C49G C53A U54G C98U U106A G128U  -2.13
55. A5C C79U C104A  -2.03
56. A5G G47U C62A G71C  -1.95
57. C4A C40U G61U  -1.92
58. A5G U55C C72A C73A G77U A121C  -1.86
59. C4U G71A G77U  -1.79
60. A5G G57A G69C  -1.65
61. A5C A6U U32C G69C  -1.62
62. A5C G63A G69U C101U  -1.54
63. C3U G117A  -1.5
64. A5G G57U A100U  -1.5
65. A5G C12A U132A U133A  -1.41
66. C3U C73U A100C  -1.36
67. C4U C13U U38A C53A  -1.25
68. A5G C11A G58U  -1.23
69. C3U C72U U106C  -1.21
70. C4A C124U  -1.17
71. C4U A43U C56G C89U U112C  -0.836
72. C4A U9G  -0.689
73. C4G C8G A26G G120U  -0.664
74. C4U G47A C56U C73U C101U A119G G120U G127A  -0.428
75. C4G A111C  -0.384
76. A5G G60A  -0.271
77. C3U C72U  -0.173
78. C4A U112A  0.26
79. C3U G77U G120C  0.534
80. C4U C12G C15G G117C  0.829
81. C3U U7A U54C A95G U112A  0.973
82. C4G C8G C72U A121G  1.81
83. A5C A6U G69U A121G  2.34
